Data from patent US12295987B2, “Method of using a GIP/GLP1 co-agonist for diabetes” (Eli Lilly and Company, priority 2018, dated 2025).

The substances below were run against T1, human gastric inhibitory peptide receptor (hGIPR) (Homo sapiens, UniProt P48546) (assay: cAMP pharmacological functional assay in presence of 0.1% casein, hGIPR). Details: ratio of hGIPR to hGLP1R cAMP EC50 ratios.
T1 construct: expressed in transfected cells; host or cells: HEK293
T1 sequence (P48546 22-466): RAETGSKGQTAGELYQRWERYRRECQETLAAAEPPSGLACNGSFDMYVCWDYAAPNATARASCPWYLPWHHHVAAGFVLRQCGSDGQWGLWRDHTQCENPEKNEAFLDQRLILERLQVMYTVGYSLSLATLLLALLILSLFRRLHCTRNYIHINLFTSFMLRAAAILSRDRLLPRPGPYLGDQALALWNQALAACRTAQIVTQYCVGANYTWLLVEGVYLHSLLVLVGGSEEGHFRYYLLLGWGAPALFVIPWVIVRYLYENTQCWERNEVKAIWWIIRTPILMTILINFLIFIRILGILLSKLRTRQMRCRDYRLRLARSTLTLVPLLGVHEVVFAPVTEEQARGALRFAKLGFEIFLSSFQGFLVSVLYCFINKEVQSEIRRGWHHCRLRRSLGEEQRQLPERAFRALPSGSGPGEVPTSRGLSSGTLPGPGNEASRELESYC
Format: cell-based

Going from “Y-Aib-EGT-αMeF(2F)-TSDYSI-αMeL-LDEK((2-[2-(2-Amino-ethoxy)-ethoxy]-acetyl)2-(γGlu)-CO—(CH2)18—CO2H)AQ-Aib-EFI-Aad-YLIEGGPSSGAPPPS-NH2 (YXEGTXTSDYSIXLDEKAQXEFIXYLIEGGPSSGAPPPS; Aib, Aad, αMeF(2F), αMeL; acylated lysine C20 diacid; amide; (2)..(2) Xaa at position 2 is Aib; (6)..(6) Xaa at position 6 is alpha-methyl-Phe(2F); (13)..(13) Xaa at position 13 is alpha-methyl-Leu; MOD_RES (17)..(17) Lys at position 17 is chemically modified by conjugation of the epsilon-amino group of the Lys side chain with (2-[2-(2-amino-ethoxy)-ethoxy]-acetyl)2-(gamma-Glu)-CO-(CH2)18- CO2H; (20)..(20) Xaa at position 20 is Aib; (24)..(24) Xaa at positi) [Peptide 147]” to “Y-Aib-EGT-αMeF(2F)-TSDYSI-αMeL-LDEK((2-[2-(2-Amino-ethoxy)-ethoxy]-acetyl)2-(γGlu)-CO—(CH2)18—CO2H)AQ-Aib-EFI-Aib-YLIEGGPSSGAPPPS-NH2 (YXEGTXTSDYSIXLDEKAQXEFIXYLIEGGPSSGAPPPS; Aib, αMeF(2F), αMeL; acylated lysine C20 diacid; amide; (2)..(2) Xaa at position 2 is Aib; (6)..(6) Xaa at position 6 is alpha-methyl-Phe(2F); (13)..(13) Xaa at position 13 is alpha-methyl-Leu; MOD_RES (17)..(17) Lys at position 17 is chemically modified by conjugation of the epsilon-amino group of the Lys side chain with (2-[2-(2-amino-ethoxy)-ethoxy]-acetyl)2-(gamma-Glu)-CO-(CH2)18- CO2H; (20)..(20) Xaa at position 20 is Aib; (24)..(24) Xaa at positi) [Peptide 152]”, the “[hGIPR/hGLP1R] EC50 Ratio” value rises from 3.66 to 5.31.

First: Y-Aib-EGT-αMeF(2F)-TSDYSI-αMeL-LDEK((2-[2-(2-Amino-ethoxy)-ethoxy]-acetyl)2-(γGlu)-CO—(CH2)18—CO2H)AQ-Aib-EFIAYLIEGGPSSGAPPPS-NH2 (YXEGTXTSDYSIXLDEKAQXEFIAYLIEGGPSSGAPPPS; Aib, αMeF(2F), αMeL; acylated lysine C20 diacid; amide; (2)..(2) Xaa at position 2 is Aib; (6)..(6) Xaa at position 6 is alpha-methyl-Phe(2F); (13)..(13) Xaa at position 13 is alpha-methyl-Leu; MOD_RES (17)..(17) Lys at position 17 is chemically modified by conjugation of the epsilon-amino group of the Lys side chain with (2-[2-(2-amino-ethoxy)-ethoxy]-acetyl)2-(gamma-Glu)-CO-(CH2)18- CO2H; (20)..(20) Xaa at position 20 is Aib; MOD_RES (39)..(39) Ser a) [Peptide 148]
Second: Y-Aib-EGT-αMeF(2F)-TSDYSI-αMeL-LDEK((2-[2-(2-Amino-ethoxy)-ethoxy]-acetyl)2-(γGlu)-CO—(CH2)18—CO2H)AQ-Aib-EFIE-αMeY-LIEGGPSSGAPPPS-NH2 (YXEGTXTSDYSIXLDEKAQXEFIEXLIEGGPSSGAPPPS; Aib, αMeF(2F), αMeL, αMeY; lipidated K; amide; (2)..(2) Xaa at position 2 is Aib; (6)..(6) Xaa at position 6 is alpha-methyl-Phe(2F); (13)..(13) Xaa at position 13 is alpha-methyl-Leu; MOD_RES (17)..(17) Lys at position 17 is chemically modified by conjugation of the epsilon-amino group of the Lys side chain with (2-[2-(2-amino-ethoxy)-ethoxy]-acetyl)2-(gamma-Glu)-CO-(CH2)18- CO2H; (20)..(20) Xaa at position 20 is Aib; (25)..(25) Xaa at positi) [Peptide 223]
The “[hGIPR/hGLP1R] EC50 Ratio” value of the first is higher: 3.14 for the first, 3.05 for the second.

First: Y-Aib-EGT-αMeF(2F)-TSDYSI-αMeL-LDEK((2-[2-(2-Amino-ethoxy)-ethoxy]-acetyl)2-(γGlu)-CO—(CH2)18—CO2H)AQ-Aib-EFIEYLIEGG-NH2 (YXEGTXTSDYSIXLDEKAQXEFIEYLIEGG; Aib, αMe residues, C20 diacid lipidation, C-amide; (2)..(2) Xaa at position 2 is Aib; (6)..(6) Xaa at position 6 is alpha-methyl-Phe(2F); (13)..(13) Xaa at position 13 is alpha-methyl-Leu; MOD_RES (17)..(17) Lys at position 17 is chemically modified by conjugation of the epsilon-amino group of the Lys side chain with (2-[2-(2-amino-ethoxy)-ethoxy]-acetyl)2-(gamma-Glu)-CO-(CH2)18- CO2H; (20)..(20) Xaa at position 20 is Aib; MOD_RES (30)..(30) Gly a) [Peptide 103]
Second: Y-Aib-EGT-αMeF(2F)-TSDYSI-αMeL-LDEK((2-[2-(2-Amino-ethoxy)-ethoxy]-acetyl)2-(γGlu)-CO—(CH2)18—CO2H)AQ-Aib-EFIEYLIEGGPSSGAPPPS-NH2 (YXEGTXTSDYSIXLDEKAQXEFIEYLIEGGPSSGAPPPS; Aib, αMeF(2F), αMeL; acylated lysine C20 diacid; amide; (2)..(2) Xaa at position 2 is Aib; (6)..(6) Xaa at position 6 is alpha-methyl-Phe(2F); (13)..(13) Xaa at position 13 is alpha-methyl-Leu; MOD_RES (17)..(17) Lys at position 17 is chemically modified by conjugation of the epsilon-amino group of the Lys side chain with (2-[2-(2-amino-ethoxy)-ethoxy]-acetyl)2-(gamma-Glu)-CO-(CH2)18- CO2H; (20)..(20) Xaa at position 20 is Aib; MOD_RES (39)..(39) Ser a) [Peptide 118]
The “[hGIPR/hGLP1R] EC50 Ratio” value of the first is higher: 3.07 for the first, 3.03 for the second.

Going from “Y-Aib-EGT-αMeF(2F)-TSDYSI-αMeL-LDEK((2-[2-(2-Amino-ethoxy)-ethoxy]-acetyl)2-(γGlu)-CO—(CH2)18—CO2H)AQ-Aib-EFIHYLIEGGPSSGAPPPS-NH2 (YXEGTXTSDYSIXLDEKAQXEFIHYLIEGGPSSGAPPPS; Aib, αMeF(2F), αMeL; acylated lysine C20 diacid; amide; (2)..(2) Xaa at position 2 is Aib; (6)..(6) Xaa at position 6 is alpha-methyl-Phe(2F); (13)..(13) Xaa at position 13 is alpha-methyl-Leu; MOD_RES (17)..(17) Lys at position 17 is chemically modified by conjugation of the epsilon-amino group of the Lys side chain with (2-[2-(2-amino-ethoxy)-ethoxy]-acetyl)2-(gamma-Glu)-CO-(CH2)18- CO2H; (20)..(20) Xaa at position 20 is Aib; MOD_RES (39)..(39) Ser a) [Peptide 153]” to “Y-Aib-EGT-αMeF(2F)-TSDYSI-αMeL-LDEK((2-[2-(2-Amino-ethoxy)-ethoxy]-acetyl)2-(γGlu)-CO—(CH2)18—CO2H)AQ-Aib-EFIPYLIEGGPSSGAPPPS-NH2 (YXEGTXTSDYSIXLDEKAQXEFIPYLIEGGPSSGAPPPS; Aib, αMeF(2F), αMeL; acylated lysine C20 diacid; amide; (2)..(2) Xaa at position 2 is Aib; (6)..(6) Xaa at position 6 is alpha-methyl-Phe(2F); (13)..(13) Xaa at position 13 is alpha-methyl-Leu; MOD_RES (17)..(17) Lys at position 17 is chemically modified by conjugation of the epsilon-amino group of the Lys side chain with (2-[2-(2-amino-ethoxy)-ethoxy]-acetyl)2-(gamma-Glu)-CO-(CH2)18- CO2H; (20)..(20) Xaa at position 20 is Aib; MOD_RES (39)..(39) Ser a) [Peptide 151]”, the “[hGIPR/hGLP1R] EC50 Ratio” value rises from 3.39 to 9.42.

With “Y-Aib-EGT-αMeF(2F)-TSDYSI-αMeL-LDEK((2-[2-(2-Amino-ethoxy)-ethoxy]-acetyl)2-(γGlu)-CO—(CH2)18—CO2H)AQ-Aib-EFISYLIEGGPSSGAPPPS-NH2 (YXEGTXTSDYSIXLDEKAQXEFISYLIEGGPSSGAPPPS; Aib, αMeF(2F), αMeL; acylated lysine C20 diacid; amide; (2)..(2) Xaa at position 2 is Aib; (6)..(6) Xaa at position 6 is alpha-methyl-Phe(2F); (13)..(13) Xaa at position 13 is alpha-methyl-Leu; MOD_RES (17)..(17) Lys at position 17 is chemically modified by conjugation of the epsilon-amino group of the Lys side chain with (2-[2-(2-amino-ethoxy)-ethoxy]-acetyl)2-(gamma-Glu)-CO-(CH2)18- CO2H; (20)..(20) Xaa at position 20 is Aib; MOD_RES (39)..(39) Ser a) [Peptide 150]” the “[hGIPR/hGLP1R] EC50 Ratio” value was 3.34.
